Assay [1] concerns the target HLA-A*02:01. In words: IEDB peptide-MHC binding, purified MHC/direct/fluorescence; filed as Kd, often an IC50 or EC50 that approximates it; ≥ and ≤ were set here for values at or beyond the usual limits of such assays. The note with it: source organism: Yersinia enterocolitica.
Another assay concerns the target HLA-A*02:11. The assay is described as above. As to conditions: source organism: Yersinia enterocolitica subsp. enterocolitica 8081.
The target of a further assay is HLA-A*02:12. Described as above. As to conditions: source organism: Yersinia enterocolitica subsp. enterocolitica 8081.
In another assay the target is HLA-A*02:16. Described as above. The note with it: source organism: Yersinia enterocolitica subsp. enterocolitica 8081.
A further assay addresses HLA-A*69:01. Described as above.
A further assay has as its target HLA-A*02:50. Kind of assay: IEDB peptide-MHC binding, purified MHC/competitive/fluorescence; filed as Kd, often an IC50 or EC50 that approximates it; ≥ and ≤ were set here for values at or beyond the usual limits of such assays. As to conditions: source organism: Yersinia bercovieri ATCC 43970.
In assay [2] the target is HLA-A*01:01. In words: IEDB peptide-MHC binding, purified MHC/competitive/fluorescence; ≥ and ≤ were set here for values at or beyond the usual limits of such assays. The note with it: source organism: Monodelphis domestica.
The target of assay [3] is HLA-A*02:01. The assay is described as above. The note with it: source organism: Monodelphis domestica.
The next assay concerns the target HLA-A*03:01. The description is as above. As to conditions: source organism: Monodelphis domestica.
Assay [4] concerns the target HLA-A*11:01. The description is as above. As to conditions: source organism: Monodelphis domestica.
Another assay deals with HLA-A*24:02. Described as above. As to conditions: source organism: Monodelphis domestica.
In the next assay the target is HLA-A*25:01. The description is as above. The note with it: source organism: Monodelphis domestica.
The target of another assay is HLA-A*29:02. The assay is described as above. As to conditions: source organism: Monodelphis domestica.
Assay [5] concerns the target HLA-A*31:01. The assay is described as above. The note with it: source organism: Monodelphis domestica.
For assay [6], the target named is HLA-A*68:02. Described as above. The note with it: source organism: Monodelphis domestica.
The target of assay [7] is HLA-B*07:02. The assay is described as above. As to conditions: source organism: Monodelphis domestica.
Assay [8] deals with HLA-B*08:01. The description is as above. The note with it: source organism: Monodelphis domestica.
The next assay deals with HLA-B*14:02. The assay is described as above. The note with it: source organism: Monodelphis domestica.
Assay [9] concerns the target HLA-B*18:01. The assay is described as above. As to conditions: source organism: Monodelphis domestica.
In another assay the target is HLA-B*35:01. Described as above. The note with it: source organism: Monodelphis domestica.
The next assay addresses HLA-B*37:01. The description is as above. As to conditions: source organism: Monodelphis domestica.
The next assay deals with HLA-B*40:02. The assay is described as above. As to conditions: source organism: Monodelphis domestica.
The target in a further assay is HLA-B*44:03. The assay is described as above. The note with it: source organism: Monodelphis domestica.
For a further assay, the target named is HLA-B*51:01. The assay is described as above. As to conditions: source organism: Monodelphis domestica.
The target of the next assay is HLA-B*53:01. The assay is described as above. The note with it: source organism: Monodelphis domestica.
Assay [10] deals with HLA-B*58:01. The assay is described as above. As to conditions: source organism: Monodelphis domestica.
Assay [11] addresses HLA-A*01:01. In words: IEDB peptide-MHC binding, purified MHC/direct/fluorescence; filed as Kd, often an IC50 or EC50 that approximates it; ≥ and ≤ were set here for values at or beyond the usual limits of such assays. As to conditions: source organism: Camelpox virus M-96.
In assay [12] the target is HLA-A*11:01. The assay is described as above. As to conditions: source organism: Camelpox virus M-96.
The target in a further assay is HLA-A*26:01. The description is as above. The note with it: source organism: Variola virus.
In the next assay the target is HLA-A*26:02. The assay is described as above. As to conditions: source organism: Variola virus.
Assay [13] has as its target HLA-A*31:01. The assay is described as above. The note with it: source organism: Camelpox virus M-96.
Assay [14] concerns the target HLA-B*07:02. The assay is described as above. As to conditions: source organism: Camelpox virus M-96.
Assay [15] concerns the target HLA-B*08:01. The description is as above. As to conditions: source organism: Variola virus.
In another assay the target is HLA-B*08:02. Described as above. As to conditions: source organism: Variola virus.
The target of a further assay is HLA-B*08:03. The assay is described as above. The note with it: source organism: Variola virus.
In another assay the target is HLA-B*15:17. The assay is described as above. The note with it: source organism: Camelpox virus M-96.
The target of assay [16] is HLA-B*18:01. The assay is described as above. The note with it: source organism: Camelpox virus M-96.
For the next assay, the target named is HLA-B*27:05. The assay is described as above. As to conditions: source organism: Camelpox virus M-96.
The next assay deals with HLA-B*40:01. Described as above. As to conditions: source organism: Camelpox virus M-96.
The next assay deals with HLA-B*44:02. The description is as above. The note with it: source organism: Camelpox virus M-96.
In the next assay the target is HLA-B*48:01. The description is as above. As to conditions: source organism: Camelpox virus M-96.
A further assay has as its target HLA-B*57:01. The assay is described as above. The note with it: source organism: Camelpox virus M-96.
Assay [17] has as its target HLA-B*58:01. The description is as above. The note with it: source organism: Camelpox virus M-96.
Assay [18] deals with HLA-A*68:02. Kind of assay: IEDB peptide-MHC binding, purified MHC/competitive/fluorescence; filed as Kd, often an IC50 or EC50 that approximates it; ≥ and ≤ were set here for values at or beyond the usual limits of such assays. As to conditions: source organism: Vaccinia virus WR.
The target of a further assay is HLA-B*15:09. Described as above. As to conditions: source organism: Vaccinia virus WR.
The target in a further assay is HLA-B*39:01. The assay is described as above. As to conditions: source organism: Vaccinia virus WR.

What is called Kd is the concentration at which binding is half-saturated. Read a low Kd as higher affinity. As a reminder, the IC50 is the concentration that gives 50% inhibition.

Consider TLLCGAATA, for which the Kd in the assay with HLA-A*02:01 [1] is 0.196 µM; with HLA-A*02:11 it was 0.042 µM; in the assay with HLA-A*02:12, 0.021 µM; with HLA-A*02:16, 0.057 µM; with HLA-A*69:01 (source organism: Yersinia enterocolitica) it was 0.394 µM; with HLA-A*02:50 it was 0.012 µM.

Consider LEYFQFVKKLL, for which the half-maximal inhibitory concentration (IC50) with HLA-A*01:01 [2], with HLA-A*02:01 [3], with HLA-A*03:01, with HLA-A*11:01 [4], in the assay with HLA-A*24:02 and with HLA-A*25:01 was not below 20 µM in each case. The IC50 with HLA-A*29:02 was not below 20 µM; with HLA-A*31:01 [5], not below 20 µM; in the assay with HLA-A*68:02 [6], not below 20 µM; with HLA-B*07:02 [7], not below 20 µM; in the assay with HLA-B*08:01 [8], 2.4 µM; with HLA-B*14:02, not below 20 µM. Moreover, the IC50 was 4.72 µM with HLA-B*18:01 [9]; not below 20 µM with HLA-B*35:01; not below 20 µM with HLA-B*37:01; 0.126 µM with HLA-B*40:02; not below 20 µM in the assay with HLA-B*44:03; not below 20 µM with HLA-B*51:01. For the same sequence, the IC50 with HLA-B*53:01 and in the assay with HLA-B*58:01 [10] was not below 20 µM each time.

With FENDIDEIL, the Kd in the assay with HLA-A*01:01 [11], in the assay with HLA-A*11:01 [12], in the assay with HLA-A*26:01, with HLA-A*26:02, in the assay with HLA-A*31:01 [13] and with HLA-A*69:01 (source organism: Camelpox virus M-96) was not below 20 µM each time. For the same sequence, the Kd in the assay with HLA-B*07:02 [14] is not below 20 µM; with HLA-B*08:01 [15], not below 20 µM; with HLA-B*08:02 it was not below 20 µM; with HLA-B*08:03 it was not below 20 µM; in the assay with HLA-B*15:17 it was not below 20 µM; with HLA-B*18:01 [16], 0.122 µM. For the same sequence, the Kd was not below 20 µM in the assay with HLA-B*27:05; 0.0053 µM with HLA-B*40:01; not below 20 µM in the assay with HLA-B*44:02; 1.2 µM with HLA-B*48:01; not below 20 µM with HLA-B*57:01; not below 20 µM with HLA-B*58:01 [17]. The Kd in the assay with HLA-A*68:02 [18] is 2.14 µM; in the assay with HLA-B*15:09, not below 20 µM; in the assay with HLA-B*39:01, not below 20 µM.

For the origin of these results see the Immune Epitope Database (IEDB).
